Molecular target: E6/e6ap complex with the wt e6ap(1-16) peptide construct (HPV16 | human) (UniProt P03126)
Test: ITC

## p53 core (DNA binding) domain (from UniProt P04637 94-311) (domain or fragment)
  dH: -19.1 kcal/mol
  stoichiometry N: 0.516

— paper PMC4853763
